# Reference: PMC9546773, “Prediction of protein–ligand binding affinity from sequencing data with interpretable machine learning”
# Molecular target: Dll (DllΔN) (Drosophila melanogaster, UniProt P20009 124-327)
# Test: EMSA; 1:1 mix of dialysis buffer (20 mM HEPES pH 8.0, 200 mM NaCl, 10% glycerol, 2 mM MgCl2, 0.05% Tween 20) and DNA mix; final about 150 mM NaCl, 10 mM Tris pH 7.5
# Settings: tags: His6 (kept); label: Cy5 on the primer strand
# Sequence of Dll (DllΔN) (P20009 124-327, stated change not applied): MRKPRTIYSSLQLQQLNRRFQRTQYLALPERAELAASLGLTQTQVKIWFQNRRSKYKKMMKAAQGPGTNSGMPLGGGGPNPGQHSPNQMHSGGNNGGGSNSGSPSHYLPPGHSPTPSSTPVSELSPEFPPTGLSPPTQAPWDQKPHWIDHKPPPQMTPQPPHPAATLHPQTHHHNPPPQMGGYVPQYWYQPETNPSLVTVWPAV
row,Binder,Kd [nM]
1,probe 1 (dsDNA) DNA 1: GTTCAGAGTTCTACAGTCCGACCTGGTTTAATTGGTCCAGGACTCGGACCTGGACTAGG DNA 2: CCTAGTCCAGGTCCGAGTCCTGGACCAATTAAACCAGGTCGGACTGTAGAACTCTGAAC,5.2
2,probe 2 (dsDNA) DNA 1: GTTCAGAGTTCTACAGTCCGACCTGGTTTGATTGGTCCAGGACTCGGACCTGGACTAGG DNA 2: CCTAGTCCAGGTCCGAGTCCTGGACCAATCAAACCAGGTCGGACTGTAGAACTCTGAAC,92.7
3,probe 3 (dsDNA) DNA 1: GTTCAGAGTTCTACAGTCCGACCTGGTTTATTTGGTCCAGGACTCGGACCTGGACTAGG DNA 2: CCTAGTCCAGGTCCGAGTCCTGGACCAAATAAACCAGGTCGGACTGTAGAACTCTGAAC,~2640
4,probe 4 (dsDNA) DNA 1: GTTCAGAGTTCTACAGTCCGACCTGGTTTAATGGGTCCAGGACTCGGACCTGGACTAGG DNA 2: CCTAGTCCAGGTCCGAGTCCTGGACCCATTAAACCAGGTCGGACTGTAGAACTCTGAAC,40.8
